Biological target: recombinant human CD248 (internally produced) (human) (UniProt Q9HCU0)
Assay: competition ELISA: non-purified Fab E. coli supernatant mixed 1:1 with biotinylated human CD248, added to immobilised human IGFBP5, Streptavidin-HRP

Chain of recombinant human CD248 (internally produced) (human) (Q9HCU0 18-687 limits assumed): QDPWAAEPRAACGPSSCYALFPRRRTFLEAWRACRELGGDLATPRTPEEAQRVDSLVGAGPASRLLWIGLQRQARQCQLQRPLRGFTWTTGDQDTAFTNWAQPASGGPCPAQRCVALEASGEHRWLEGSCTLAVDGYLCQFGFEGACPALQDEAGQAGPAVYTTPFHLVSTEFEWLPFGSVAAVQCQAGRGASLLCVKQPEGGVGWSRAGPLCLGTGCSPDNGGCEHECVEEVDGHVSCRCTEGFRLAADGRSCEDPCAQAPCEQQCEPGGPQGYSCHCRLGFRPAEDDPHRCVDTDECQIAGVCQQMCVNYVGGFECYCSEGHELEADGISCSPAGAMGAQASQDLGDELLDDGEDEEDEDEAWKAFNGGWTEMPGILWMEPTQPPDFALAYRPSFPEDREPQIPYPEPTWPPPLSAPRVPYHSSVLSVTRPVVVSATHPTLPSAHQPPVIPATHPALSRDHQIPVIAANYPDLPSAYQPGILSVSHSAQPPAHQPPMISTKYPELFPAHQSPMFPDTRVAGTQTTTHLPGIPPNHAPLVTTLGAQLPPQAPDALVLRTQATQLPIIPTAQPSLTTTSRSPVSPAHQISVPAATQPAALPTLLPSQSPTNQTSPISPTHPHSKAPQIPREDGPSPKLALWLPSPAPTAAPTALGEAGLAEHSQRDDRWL

B1: YU1023-A02 Fab (Fab, V domains shown)
VH: QVQLVESGPGLVKPSQTLSLTCTVSGGSISSGGYYWSWIRQHPGKGLEWIGYIYYSGSTYYNPSLKSRVTISVDTSKNQFSLKLSSVTAADTAVYYCARVRGRSATYFDYWGQGTTVTVSS
VL: QSVLTQPPSVSGAPGQRVTISCTGSSSNIGAGYDVRWYQQLPGTAPKLLIYANNNRPSGVPDRFSGSKSGTSASLAITGLQTEDEADYYCQSYDISLSGSLFGGGTKLTVL
Q: With B1 as the binder, how does the fold inhibition of CD248-IGFBP5 binding over the negative control antibody (Palivizumab) read?
A: The fold inhibition of CD248-IGFBP5 binding over the negative control antibody (Palivizumab) was greater than 10 fold.
